Results on 16 sequences are retold here after the nanobody polyreactivity screen of Harvey et al. (2022).

This series in a line: yeast display, Sf9 membrane polyspecificity reagent, FACS + sequencing; frameworks hold sequencing errors. An outline of the steps: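 A synthetic nanobody library was expressed on Saccharomyces cerevisiae BJ5465 by galactose induction for 36–48 hours. The library was stained for 1 hour at 4 °C with 10% biotinylated, detergent-solubilized Sf9 membrane reagent and enriched with streptavidin microbeads before FACS. Low and high (top ~1%) gates were set on anti-HA fluorescence for expression and streptavidin fluorescence for reagent binding, and each polyreactivity label reflects the gate of origin.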
In the case of “QEQLLESGGGLLQAGGSLRLSCAASGSNFVSVTMGWYRQATGKELELVASIGRGSTTNHADSVKGRFTISRDNAKNIVYLLMNSLKPEDTAVYYCAALESYGKYHGYWGQGTQVTVSS”, the “polyreactivity (PSR sort gate)” value was “low polyreactivity”.
As for “QVQLVESGGGLVQAGGSLRLSCAASGITFVQYAMGWYRQAPGKERELVAAITSDGRTYYADSVKGRFTISRDNAKNTVYLQMNSLKREDTAVYYCAADVWRYTAYGGAYRRDYWGQGTQVTVSS”, the entry is “low polyreactivity”; as for “QVQLVESGGGLVQAGGSLRLSCAASGRTFFPYAMGWYRQAPGKEREFVAAITKTDDSTYYADSVKGRFTISRDNAKNTVYLQMNSLKPEDTAVYYCAADTSRSVSVFIVWYWLGYWGQGTQVTVSS”, “low polyreactivity”; as for “QVQLVESGGGLVQAGGSLRLSCAASGGIFNRYAMGWYRPAPGKERELVAGITRSGGSTSYADSVKGRFTISRDNAKNTVYLQMNSLKPEDTAVYYCNKVAYYASSSYYRFGAYGYWGQGTQVTVSS”, “high polyreactivity”.
Next, “QVQLVESGGGLVQAGGSLRLSCAASGRIFAKNAMGWYRQAPGKERELVAAINHSGGSTYYADSVKGRFTISRDNAKNTVYLQMNSLKPEDTAVYYCAARGLTTRSPFYYWGQGTQVTVSS”: “high polyreactivity”; “QVQLVESGGGLVQAGGSLRLSCAASGGTFVTYAMGWYRQAPGKERELVAAITTGGSTYYADSVKGRFTISRDNAKNSVYLQMISLKPEDTAVYYCAAVYTGSGKRYYKGYYWGQGTQVTVSS”: “low polyreactivity”.
As for “QVQLVESGGGLVQAGGSLRLSCAASGRIFYTYAMGWYRQAPGKERELVAAIRWRGGSTHYADSVKGRFTISRDNAKNTVYLQMNSLKPEDTAVYYCARDGGWYIDGRAYTGDYWGQGTQVTVSS”, the entry is “high polyreactivity”; as for “QVQLVESGGGLVQAGGSLRLSCAASGFTFWEYAMGWYRQAPGKERELVAAIRDRGVNTYYADSVKGRFTISRDNAKNTVYLQMNSLKPVDTAVYYCAKSTRRGGVALGEYDYWGQGSQVTVSS”, “low polyreactivity”; as for “QVQLVESGGGLVQAGGSLRLSCAASGIIFSDYAMGWYRQAPGKERELVAAISRNGGSTYYADSVKGRFTISRDNAKNTVYLHMTSLKPEDTAVYYCAATRRYRYNWGQGTQVSVSS”, “high polyreactivity”.
Turning to “QVHLEESGGGLVQAGGSLRLSCAASGFIFNAYAMGWYRQAPGKERELVAAISSSGGRTYYADSVKGRFTISRDNAKNTVYLQMNSLKPEVTAVYYCNTYRYYQYYRSMDYWGQGTQVTVSS”, the “polyreactivity (PSR sort gate)” value is reported as “high polyreactivity”.
Next, “QVQLVESGGGLVQAGGSLRLSCAASGNIFVYYAMGWYRQAPGKERELVAAISFRGGTTYYADSVKGRFTISRDNAKNTVYLQMNSLKPEDTAVYYCAKDIFQIGYRRYDSWGQGTQVTVSS”: “low polyreactivity”; “QVQLVESGGGLVQAGGSLRLSCAASGRTFHPYAMGWYRQAPGKERELVAAITISTNYADSVKGRFTISRDNAKNTVYLQMNSLKPEDTAVYYCNKDGTHEVYVGGYEDDYWGQGTQVTVSS”: “low polyreactivity”; “QVQLVESGGGLVQAGGSLRLSCAASGRTFRAYAMGWYRQAPGKEMELVAGITSGGSTNYADSVKGRFTISRDNAKNTVYLQMNSLKPEDTAVYYCAARRGTYRYRYDYWGQGTQVTVSS”: “high polyreactivity”.
Next, “QVQLVESGGGLVQAGGSLRLICAASGSIFVTNGMGWYRQAPGKERELVAAIRWSGDSTYYADSVKGRFTISRDNGKNTVFLLMKSLKPEDTAVYYCAAESFRYIRLNYKYGDYYWGQGTQVTVSS”: “high polyreactivity”; “QVQLVESGGGLVQAGGSLRLSCAASGRIFYVYAMGWYRQAPGKEREFVAAITRRSGSTYYADSVKGRFTISRDKAKNTVYLQMNSLKPEDTAVYYCNARLKYAFPQVPPYDYWGQGTQVTVSS”: “high polyreactivity”.
As for “QVLLVESGGGLVQAGGSLSLSCAASGRTFFNNAMGWYRQAPGQEREFVAAISRSGSSTYYAVSVKGRFTISRDNAKNTVYLQMNSLKPEHTAVYYCASYLYYYSAYGYWGQGTQVTVSS”, the entry is “high polyreactivity”.
